This experiment deals with T1, TRIM24 PHD-Bromo C840W (human, UniProt O15164 824-1006, C840W).
T1 sequence: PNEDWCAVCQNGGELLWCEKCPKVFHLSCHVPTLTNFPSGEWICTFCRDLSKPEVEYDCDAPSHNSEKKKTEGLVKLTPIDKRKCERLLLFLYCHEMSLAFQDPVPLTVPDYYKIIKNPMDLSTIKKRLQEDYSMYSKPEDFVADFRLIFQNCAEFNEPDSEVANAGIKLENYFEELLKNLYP
Kind of experiment: ITC.

Bounds are passed on as bounds.

ARTKQTARKSTGGKA [H3(1–15)K4 peptide] showed a Kd of over 400 µM.

In general, Kd refers to the constant that tells how readily two partners part at equilibrium. A low value points to tighter binding.
